Reference: publication PMC3279363
Values joined by “and” are separate entries in the source; they are usually repeats but may differ in a detail not shown here. Equal values may be shown once.

Molecular target: T1, nitrated major birch pollen allergen Bet v 1.0101 (Betula verrucosa), P15494
T1 chain: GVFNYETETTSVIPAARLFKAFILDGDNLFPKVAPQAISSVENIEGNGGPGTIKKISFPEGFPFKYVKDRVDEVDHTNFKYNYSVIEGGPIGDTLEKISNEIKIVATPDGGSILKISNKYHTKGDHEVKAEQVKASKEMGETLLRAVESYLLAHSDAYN
Assay: SEC + other: Western blot; data not shown; high performance size exclusion chromatography and Western blot analysis of Bet v 1 nitro
Details: remark: other sources report otherwise

stoichiometry N: 2 and 3
B1: nitrated major birch pollen allergen Bet v 1.0101, P15494 2-160 (natural protein)
chain: T1 chain
modifications: here or on the partner: nitrotyrosine: 58.1% of all tyrosine groups within one protein molecule were nitrated (tetranitromethane); all tyrosine residues nitrated to some extent; nitrotyrosine: 58.1% of all tyrosine groups within one protein molecule were nitrated (tetranitromethane); all tyrosine residues nitrated to some extent
